The values that follow come from the RNAGym collection of RNA variant scans (doi:10.7554/elife.80360).

B1: Hairpin Ribozyme (parent)
chain: GUCCUCUUUCACGUGCGCGUGAAAGAGAGAAGUGAACCAGAGAAACACACGUUGUGGUAUAUUACCUGGUA

In this series the parent is B1. Briefly: self-cleavage, relative activity (ratio to wild type); higher = more cleavage; co-transcriptional.
With GUCCUCUUUCACGUGCGCGUGAAAGAGAGAAGUGAACCAGAGAAACACACGUUGUGGUAUAUUACCUAGUC [G68A A71C], the self-cleavage is 0.348.
Regarding GUCCUCUUUCACGUGCGCGUGAAAGAGAGAAGUGAACCAGAGAAACACACGUUGUGGUAUAUUACCUGAUG [G69A A71G], the self-cleavage was 0.358.
On to GUCCUCUUUCACGUGCGCGUGAAAGAGAGAAGUGAACCAGAGAAACACACGUUGUGGUAUAUUACCUUGUU [G68U A71U], for which the self-cleavage came out at 0.234.
In the case of GUCCUCUUUCACGUGCGCGUGAAAGAGAGAAGUGAACCAGAGAAACACACGUUGUGGUAUAUUACCCGGAA [U67C U70A], the self-cleavage is 0.229.
Under GUCCUCUUUCACGUGCGCGUGAAAGAGAGAAGUGAACCAGAGAAACACACGUUGUGGUAUAUUACCCGGGA [U67C U70G] stands 0.269.
For the variant GUCCUCUUUCACGUGCGCGUGAAAGAGAGAAGUGAACCAGAGAAACACACGUUGUGGUAUAUUACCCGGCA [U67C U70C], the self-cleavage is 0.279.
Under GUCCUCUUUCACGUGCGCGUGAAAGAGAGAAGUGAACCAGAGAAACACACGUUGUGGUAUAUUACCUUGGA [G68U U70G] stands 0.252; under GUCCUCUUUCACGUGCGCGUGAAAGAGAGAAGUGAACCAGAGAAACACACGUUGUGGUAUAUUACCUGCCA [G69C U70C], 0.685; under GUCCUCUUUCACGUGCGCGUGAAAGAGAGAAGUGAACCAGAGAAACACACGUUGUGGUAUAUUACCUGCAA [G69C U70A], 0.437.
Take GUCCUCUUUCACGUGCGCGUGAAAGAGAGAAGUGAACCAGAGAAACACACGUUGUGGUAUAUUACCUCUUA [G68C G69U]: the self-cleavage was found to be 0.17.
Under GUCCUCUUUCACGUGCGCGUGAAAGAGAGAAGUGAACCAGAGAAACACACGUUGUGGUAUAUUACCUGUUU [G69U A71U] stands 0.362; under GUCCUCUUUCACGUGCGCGUGAAAGAGAGAAGUGAACCAGAGAAACACACGUUGUGGUAUAUUACCUGUUG [G69U A71G], 0.438.
Under GUCCUCUUUCACGUGCGCGUGAAAGAGAGAAGUGAACCAGAGAAACACACGUUGUGGUAUAUUACCUGUUC [G69U A71C] stands 1.38; under GUCCUCUUUCACGUGCGCGUGAAAGAGAGAAGUGAACCAGAGAAACACACGUUGUGGUAUAUUACCUCGUU [G68C A71U], 0.126.
Under GUCCUCUUUCACGUGCGCGUGAAAGAGAGAAGUGAACCAGAGAAACACACGUUGUGGUAUAUUACCGGGUU [U67G A71U] stands 0.918; under GUCCUCUUUCACGUGCGCGUGAAAGAGAGAAGUGAACCAGAGAAACACACGUUGUGGUAUAUUACCAGCUA [U67A G69C], 0.258.
In the case of GUCCUCUUUCACGUGCGCGUGAAAGAGAGAAGUGAACCAGAGAAACACACGUUGUGGUAUAUUACCCAGUA [U67C G68A], the self-cleavage worked out at 0.231.
Under GUCCUCUUUCACGUGCGCGUGAAAGAGAGAAGUGAACCAGAGAAACACACGUUGUGGUAUAUUACCCUGUA [U67C G68U] stands 0.208; under GUCCUCUUUCACGUGCGCGUGAAAGAGAGAAGUGAACCAGAGAAACACACGUUGUGGUAUAUUACCUGGGU [U70G A71U], 1.26; under GUCCUCUUUCACGUGCGCGUGAAAGAGAGAAGUGAACCAGAGAAACACACGUUGUGGUAUAUUACCUGGGC [U70G A71C], 1.74.
In the case of GUCCUCUUUCACGUGCGCGUGAAAGAGAGAAGUGAACCAGAGAAACACACGUUGUGGUAUAUUACCGUGUA [U67G G68U], the self-cleavage came out at 0.192.
Take GUCCUCUUUCACGUGCGCGUGAAAGAGAGAAGUGAACCAGAGAAACACACGUUGUGGUAUAUUACCUGUGA [G69U U70G]: the self-cleavage worked out at 0.299.
Under GUCCUCUUUCACGUGCGCGUGAAAGAGAGAAGUGAACCAGAGAAACACACGUUGUGGUAUAUUACCCGUUA [U67C G69U] stands 0.147.
For GUCCUCUUUCACGUGCGCGUGAAAGAGAGAAGUGAACCAGAGAAACACACGUUGUGGUAUAUUACCUCGAA [G68C U70A], the self-cleavage is 0.143.
For the variant GUCCUCUUUCACGUGCGCGUGAAAGAGAGAAGUGAACCAGAGAAACACACGUUGUGGUAUAUUACCUGGCG [U70C A71G], the self-cleavage was 1.85.
Consider GUCCUCUUUCACGUGCGCGUGAAAGAGAGAAGUGAACCAGAGAAACACACGUUGUGGUAUAUUACCUAUUA [G68A G69U], for which the self-cleavage is 0.172.
